According to PMC7840601:

Key:
[1] = target: human C3b (CompTech) (human); assay: SPR; 300 RU human C3b amine-coupled on a CM5 chip; FH1-4 WT or variant injected in duplicate at up to 40 uM; Biacore X100, 25 C, 30 ul/min, 10 mM HEPES-buffered saline, 3 mM EDTA, 0.05% surfactant P20; steady-state affinity model
[2] = target: human C3b (CompTech) (human)

| KD as a ratio of the KD of WT FH1-4 [1] | cofactor activity for FI-mediated cleavage of C3b on sheep erythrocytes, IC50 as a multiple of WT FH1-4 [2] | decay acceleration of the C3 convertase (C3bBb) on sheep erythrocytes, IC50 as a multiple of WT FH1-4 [2] | Substance |
| --- | --- | --- | --- |
| 1.23 x WT | – | – | FH1-4 M162V (from UniProt P08603 19-263) (domain or fragment) |
| 1.2 x WT | – | – | FH1-4 G69E (from UniProt P08603 19-263) (domain or fragment) |
| 0.97 x WT | – | – | FH1-4 A161S (from UniProt P08603 19-263) (domain or fragment) |
| 1.44 x WT | – | – | FH1-4 D130N (from UniProt P08603 19-263) (domain or fragment) |
| 1.2 x WT | – | – | FH1-4 S159N (from UniProt P08603 19-263) (domain or fragment) |
| – | 11 x WT | 25.1 x WT | FH1-4 Q81P (from UniProt P08603 19-263) (domain or fragment) |
